B1: αL I domain clone m7 (F292S), yeast-displayed (receptor)
chain: NVDLVFLFDGSMSLQPDEFQKILDFMKDVMKKLSNTSYQFAAVQFSTSYKTEFDFSDYVKWKDPDALLKHVKHMLLLTNTFGAINYVATEVFREELGARPDATKVLIIITDGEATDSGNIDAAKDIIRYIIGIGKHFQTKESQETLHKFASKPASEFVKILDTSEKLKDLFTELQKKIYVIEGTSKQDLT
notes: yeast surface display; not shown: Aga2, linker and hemagglutinin tag of pCTCON; c-myc tag
B2: αL I domain clone m5a (L274I), yeast-displayed (receptor)
chain: NVDLVFLFDGSMSLQPDEFQKILDFMKDVMKKLSNTSYQFAAVQFSTSYKTEFDFSDYVKWKDPDALLKHVKHMLLLTNTFGAINYVATEVFREELGARPDATKVLIIITDGEATDSGNIDAAKDIIRYIIGIGKHFQTKESQETIHKFASKPASEFVKILDTFEKLKDLFTELQKKIYVIEGTSKQDLT
notes: as for B1
B3: αL I domain clone f11 (L295W), yeast-displayed (receptor)
chain: NVDLVFLFDGSMSLQPDEFQKILDFMKDVMKKLSNTSYQFAAVQFSTSYKTEFDFSDYVKWKDPDALLKHVKHMLLLTNTFGAINYVATEVFREELGARPDATKVLIIITDGEATDSGNIDAAKDIIRYIIGIGKHFQTKESQETLHKFASKPASEFVKILDTFEKWKDLFTELQKKIYVIEGTSKQDLT
notes: as for B1
B4: αL I domain clone m2 (I258T, T267A, F277A), yeast-displayed (receptor)
chain: NVDLVFLFDGSMSLQPDEFQKILDFMKDVMKKLSNTSYQFAAVQFSTSYKTEFDFSDYVKWKDPDALLKHVKHMLLLTNTFGAINYVATEVFREELGARPDATKVLIIITDGEATDSGNIDAAKDIIRYTIGIGKHFQAKESQETLHKAASKPASEFVKILDTFEKLKDLFTELQKKIYVIEGTSKQDLT
notes: as for B1
B5: αL I domain clone m5 (L274I, S279T), yeast-displayed (receptor)
chain: NVDLVFLFDGSMSLQPDEFQKILDFMKDVMKKLSNTSYQFAAVQFSTSYKTEFDFSDYVKWKDPDALLKHVKHMLLLTNTFGAINYVATEVFREELGARPDATKVLIIITDGEATDSGNIDAAKDIIRYIIGIGKHFQTKESQETIHKFATKPASEFVKILDTFEKLKDLFTELQKKIYVIEGTSKQDLT
notes: as for B1
B6: αL I domain clone m1 (I258T), yeast-displayed (receptor)
chain: NVDLVFLFDGSMSLQPDEFQKILDFMKDVMKKLSNTSYQFAAVQFSTSYKTEFDFSDYVKWKDPDALLKHVKHMLLLTNTFGAINYVATEVFREELGARPDATKVLIIITDGEATDSGNIDAAKDIIRYTIGIGKHFQTKESQETLHKFASKPASEFVKILDTFEKLKDLFTELQKKIYVIEGTSKQDLT
notes: as for B1
B7: αL I domain clone f8 (L295A), yeast-displayed (receptor)
chain: NVDLVFLFDGSMSLQPDEFQKILDFMKDVMKKLSNTSYQFAAVQFSTSYKTEFDFSDYVKWKDPDALLKHVKHMLLLTNTFGAINYVATEVFREELGARPDATKVLIIITDGEATDSGNIDAAKDIIRYIIGIGKHFQTKESQETLHKFASKPASEFVKILDTFEKAKDLFTELQKKIYVIEGTSKQDLT
notes: as for B1
B8: αL I domain clone f6 (F292G), yeast-displayed (receptor)
chain: NVDLVFLFDGSMSLQPDEFQKILDFMKDVMKKLSNTSYQFAAVQFSTSYKTEFDFSDYVKWKDPDALLKHVKHMLLLTNTFGAINYVATEVFREELGARPDATKVLIIITDGEATDSGNIDAAKDIIRYIIGIGKHFQTKESQETLHKFASKPASEFVKILDTGEKLKDLFTELQKKIYVIEGTSKQDLT
notes: as for B1
B9: αL I domain clone m3 (G262E), yeast-displayed (receptor)
chain: NVDLVFLFDGSMSLQPDEFQKILDFMKDVMKKLSNTSYQFAAVQFSTSYKTEFDFSDYVKWKDPDALLKHVKHMLLLTNTFGAINYVATEVFREELGARPDATKVLIIITDGEATDSGNIDAAKDIIRYIIGIEKHFQTKESQETLHKFASKPASEFVKILDTFEKLKDLFTELQKKIYVIEGTSKQDLT
notes: as for B1
B10: αL I domain clone f3 (L289P), yeast-displayed (receptor)
chain: NVDLVFLFDGSMSLQPDEFQKILDFMKDVMKKLSNTSYQFAAVQFSTSYKTEFDFSDYVKWKDPDALLKHVKHMLLLTNTFGAINYVATEVFREELGARPDATKVLIIITDGEATDSGNIDAAKDIIRYIIGIGKHFQTKESQETLHKFASKPASEFVKIPDTFEKLKDLFTELQKKIYVIEGTSKQDLT
notes: as for B1
B11: αL I domain clone f5 (F292A), yeast-displayed (receptor)
chain: NVDLVFLFDGSMSLQPDEFQKILDFMKDVMKKLSNTSYQFAAVQFSTSYKTEFDFSDYVKWKDPDALLKHVKHMLLLTNTFGAINYVATEVFREELGARPDATKVLIIITDGEATDSGNIDAAKDIIRYIIGIGKHFQTKESQETLHKFASKPASEFVKILDTAEKLKDLFTELQKKIYVIEGTSKQDLT
notes: as for B1
B12: αL I domain clone f7 (F292P), yeast-displayed (receptor)
chain: NVDLVFLFDGSMSLQPDEFQKILDFMKDVMKKLSNTSYQFAAVQFSTSYKTEFDFSDYVKWKDPDALLKHVKHMLLLTNTFGAINYVATEVFREELGARPDATKVLIIITDGEATDSGNIDAAKDIIRYIIGIGKHFQTKESQETLHKFASKPASEFVKILDTPEKLKDLFTELQKKIYVIEGTSKQDLT
notes: as for B1
B13: αL I domain clone f9 (L295P), yeast-displayed (receptor)
chain: NVDLVFLFDGSMSLQPDEFQKILDFMKDVMKKLSNTSYQFAAVQFSTSYKTEFDFSDYVKWKDPDALLKHVKHMLLLTNTFGAINYVATEVFREELGARPDATKVLIIITDGEATDSGNIDAAKDIIRYIIGIGKHFQTKESQETLHKFASKPASEFVKILDTFEKPKDLFTELQKKIYVIEGTSKQDLT
notes: as for B1
B14: αL I domain clone f10 (L295Q), yeast-displayed (receptor)
chain: NVDLVFLFDGSMSLQPDEFQKILDFMKDVMKKLSNTSYQFAAVQFSTSYKTEFDFSDYVKWKDPDALLKHVKHMLLLTNTFGAINYVATEVFREELGARPDATKVLIIITDGEATDSGNIDAAKDIIRYIIGIGKHFQTKESQETLHKFASKPASEFVKILDTFEKQKDLFTELQKKIYVIEGTSKQDLT
notes: as for B1
B15: αL I domain clone f2 (L289G), yeast-displayed (receptor)
chain: NVDLVFLFDGSMSLQPDEFQKILDFMKDVMKKLSNTSYQFAAVQFSTSYKTEFDFSDYVKWKDPDALLKHVKHMLLLTNTFGAINYVATEVFREELGARPDATKVLIIITDGEATDSGNIDAAKDIIRYIIGIGKHFQTKESQETLHKFASKPASEFVKIGDTFEKLKDLFTELQKKIYVIEGTSKQDLT
notes: as for B1
B16: αL I domain clone m4 (F134L, K252E, F265S), yeast-displayed (receptor)
chain: NVDLVLLFDGSMSLQPDEFQKILDFMKDVMKKLSNTSYQFAAVQFSTSYKTEFDFSDYVKWKDPDALLKHVKHMLLLTNTFGAINYVATEVFREELGARPDATKVLIIITDGEATDSGNIDAAEDIIRYIIGIGKHSQTKESQETLHKFASKPASEFVKILDTFEKLKDLFTELQKKIYVIEGTSKQDLT
notes: as for B1
B17: αL I domain clone f4 (L289W), yeast-displayed (receptor)
chain: NVDLVFLFDGSMSLQPDEFQKILDFMKDVMKKLSNTSYQFAAVQFSTSYKTEFDFSDYVKWKDPDALLKHVKHMLLLTNTFGAINYVATEVFREELGARPDATKVLIIITDGEATDSGNIDAAKDIIRYIIGIGKHFQTKESQETLHKFASKPASEFVKIWDTFEKLKDLFTELQKKIYVIEGTSKQDLT
notes: as for B1

target: T1, ICAM-1-Fcγ (ICAM-1 residues of 1-480 fused to the Fc of human IgG, R&D Systems) (human, UniProt P05362 28-480); assay: flow cytometry on yeast-displayed I domain, ICAM-1-Fcγ 10 µg/ml
T1 construct: range 1-480; Bought (R&D Systems); also called ICAM-1-Fcγ chimera; not shown: Fc of human IgG
Procedure: Cells that were cultured only in SD-CAA or further induced in SG-CAA were harvested, washed with 100 μl of labeling buffer (PBS, 0.5% BSA, 10 mM MgCl₂), and then incubated with ligands at 10 μg/ml in 50 μl of the labeling buffer for 20 min with shaking at 30° C. in a 96-well V-bottom plate. Ligands used in this study were anti-c-myc antibody 9E10 (Santa Cruz Biotechnology, CA) and anti-hemagglutinin antibody 12CA5 (Roche Applied Science), αL I domain-specific antibodies TS1/22 and MEM83³², and ICAM-1-Fcγ (ICAM-1 residues of 1-480 fused to the Fc of human IgG, R&D Systems). After incubation with the primary ligands, cells were washed once in 100 μl of the labeling buffer and incubated with the fluorescence-conjugated secondary antibodies at 5 μg/ml in 50 μl of the labeling buffer for 20 min at 4° C. Finally, cells were washed once in 100 μl and suspended in 100 μl of the labeling buffer for flow cytometry (FACScan, BD Biosciences).
A total of twenty-five yeast colonies were picked from SD-CAA plates from the libraries selected with ICAM-1-Fcγ. These clones were tested for binding of ICAM-1-Fcγ, and sequenced (Table 1). Of these, 15 had unique sequences and were designated as m1 to m15, and all bound ICAM-1 better than wild-type (Table 1). Five clones contained single mutations, and the remainder contained 2-5 mutations each (Table 1). From the clones containing multiple mutations, one to three residues were selected and independently tested as a single substitution (designated with a, b, or c suffix) or independently isolated from the ratchet residue library (see below).

T1 sequence (P05362 28-480 limits assumed, form in doubt): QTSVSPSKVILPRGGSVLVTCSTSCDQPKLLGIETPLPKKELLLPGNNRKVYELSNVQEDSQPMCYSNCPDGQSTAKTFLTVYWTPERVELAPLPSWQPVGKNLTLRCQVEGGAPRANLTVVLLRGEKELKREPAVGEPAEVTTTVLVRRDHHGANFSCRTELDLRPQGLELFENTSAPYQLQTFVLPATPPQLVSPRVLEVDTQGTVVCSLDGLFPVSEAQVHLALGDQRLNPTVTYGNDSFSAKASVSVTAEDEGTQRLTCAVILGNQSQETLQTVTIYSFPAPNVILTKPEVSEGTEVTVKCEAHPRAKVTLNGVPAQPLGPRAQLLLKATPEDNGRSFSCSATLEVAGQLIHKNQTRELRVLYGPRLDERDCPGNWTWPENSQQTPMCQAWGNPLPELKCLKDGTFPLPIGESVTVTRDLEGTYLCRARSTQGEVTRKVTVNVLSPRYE

Binder | ICAM-1 (% ASFI of HA)
B1 | 47 % ASFI of HA
B2 | 91 % ASFI of HA
B3 | 81 % ASFI of HA
B4 | 10 % ASFI of HA
B5 | 51 % ASFI of HA
B6 | 10 % ASFI of HA
B7 | 25 % ASFI of HA
B8 | 91 % ASFI of HA
B9 | 4 % ASFI of HA
B10 | 24 % ASFI of HA
B11 | 29 % ASFI of HA
B12 | 5 % ASFI of HA
B13 | 5 % ASFI of HA
B14 | 4 % ASFI of HA
B15 | 74 % ASFI of HA
B16 | 31 % ASFI of HA
B17 | 51 % ASFI of HA

Source: patent US20080311130A1 (IMMUNE DISEASE INSTITUTE, published 2008)
